The results in this text go back to the supplement of paper PMC9170038.

This series concerns MS2 coat protein. The experiment in a line: apparent KD of MS2 coat protein; designed switch direction (-1 OFF switch, 1 ON switch): -1; higher = weaker reporter binding. In outline:
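Three titration conditions were used: no input, 200 uM small-molecule ligand, and an oligonucleotide input. In each, SNAP-549-labelled MS2 coat protein was raised from 0.7 or 1.5 nM, doubling, to 3 µM over designed RNA switches transcribed on Illumina chips by stalled E. coli RNA polymerase. Curve fits of normalised cluster fluorescence gave values whose per-design median over clusters is the apparent KD.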

The mark [1] stands for this setting: Eterna round: R95, input ligand: FMN 200 uM.
Setting [2] is: Eterna round: R95, input ligand: microRNA oligo, concentration not stated.
The mark [3] stands for this setting: Eterna round: R95, input ligand: none.

As for “ACUGGUGCAGGAUAUACAAUCGUGCUUCGGCACGUAAGGUCACAUGAGGAUCACCCAUGUAGAAGGGCACCAGU [E2/2-D1] (Eterna round: R97, puzzle: Exclusion 2)”, the “apparent KD of MS2 coat protein” value is 177 nM (input ligand: FMN 200 uM) and 26.2 nM (input ligand: none).

“CUCUGUGCAAAGGAUAUGUGAACAGGUCUAAUAACAGAAGGUUGCACUUGAGGAUCACCCAAGUUAAAGGGACC [Ortebi] (Eterna round: R97, puzzle: Exclusion 6)”: the “apparent KD of MS2 coat protein” value is, setting by setting: (input ligand: FMN 200 uM) 517 nM; (input ligand: none) 462 nM.

“UAAUUAGCAAGUAGAUCCGACAUGAGGAUCACCCAUGUUAUCUGAAAGAACGCAGAAUAAUUGUGAGCUCGUCUAAA [Sensor-V1 #2] (Eterna round: R97, puzzle: Sensor, turn-off variant 1)”: the “apparent KD of MS2 coat protein” value is 144 nM (input ligand: FMN 200 uM) and 154 nM (input ligand: none).

For the sequence “CUUGUUUAUGUAGGAUAUGCCUGGCGUGCCUUUGCAGAAGGACAUGAGGAUCACCCAUGUACAUGAGGAUCACCCAUGUUCGCA [salish99_ExNG1_r04_102] (Eterna round: R96, puzzle: Exclusion NG 1)”, the “apparent KD of MS2 coat protein” value came to 836 nM (input ligand: FMN 200 uM); 455 nM (input ligand: microRNA oligo, concentration not stated); 825 nM (input ligand: none).

Regarding “AGGAUGAGAGGAUAUACAAACGGUCCCACAAUCUCACGGGCACAUGAGGAUCACCCAUGUAGAAGGCUCAUUGG [EX2 B.28] (Eterna round: R97, puzzle: Exclusion 2)”, the “apparent KD of MS2 coat protein” value by setting is: (input ligand: FMN 200 uM) 325 nM; (input ligand: none) 49.6 nM.

Regarding “GAGGAGCAAGGAUAUACGAGGAUAUGGAAGGUUGGAGAGUGACAUGAGGAUCACCCAUGUAGAAGGUGCAAGGG [JR_Exclu2_Sub096] (puzzle: Exclusion 2)”, the “apparent KD of MS2 coat protein” value reads like this: under setting [1], 65.9 nM; under setting [2], 91.8 nM; under setting [3], 131 nM.

As for “CGAUGUUAUGUCAGGAUAUGCGUUGCGAAAGCAAUGUAGAAGGGACAUGAGGAUCACCCAUGUCCUAACCAUCG [Omei A 8] (puzzle: Brourd's mod of Exclusion 4)”, the “apparent KD of MS2 coat protein” value reads like this: under setting [1], 15.1 nM; under setting [2], 13 nM; under setting [3], 13.5 nM.

Regarding “AGCCCUGCAGGAUAUGCCGAGGAUAACAUGAGGAUCACCCAUGUGACCGAUUGUUAGACUGCAGAAGGGCAUGGGA [salish99_ex5_r4_303] (Eterna round: R97, puzzle: Exclusion 5)”, the “apparent KD of MS2 coat protein” value was determined as 81.7 nM (input ligand: FMN 200 uM) and 509 nM (input ligand: none).

Regarding “GCACUGCGAGGAUAUACAUGAGGAUCACCCAUGUGUCGGCAGACUUGUUUGGUCUAAGGUAGAAGGCGCGUAAA [JR_Ex3_Sub003] (Eterna round: R97, puzzle: Exclusion 3)”, the “apparent KD of MS2 coat protein” value by setting is: (input ligand: FMN 200 uM) 145 nM; (input ligand: none) 39.7 nM.

As for “UCUUAGUCAGGAUAUACAUGAGGAUCACCCAUGUAAAAUUUUAAUUUAAUUUUAAGGUGUAGAAGGGACCACCU [Ex3 #18] (Eterna round: R97, puzzle: Exclusion 3)”, the “apparent KD of MS2 coat protein” value reads like this: (input ligand: FMN 200 uM) 19.2 nM; (input ligand: none) 23.4 nM.

“CCUAUGUUAGGAUAUCUAGUAAGAGGCCCAUAGGGCCGUGCAGAGAAGGGACAUGAGGAUCACCCAUGUGUCAC [Eternabot (L1) Solution 86] (Eterna round: R97, puzzle: Exclusion 4)”: the “apparent KD of MS2 coat protein” value amounted to 26.7 nM (input ligand: FMN 200 uM) and 34.6 nM (input ligand: none).

Turning to “GGGUGACAUGAGGAUCACCCAUGUCAGGAUAUGGGCUCGGGCUCGAAAGGGUCUGGGUCUAGAAGGGACUGCCC [-36.1, -35.1 kcal, 22%A (-3 GC series)] (Eterna round: R97, puzzle: Exclusion 1)”, the “apparent KD of MS2 coat protein” value is, setting by setting: (input ligand: FMN 200 uM) 137 nM; (input ligand: none) 67 nM.

Take “AGCGAGGCAGGAUAUACAUGAGGAUCACCCAUGUGCUUGCAUGGCGUGGGACGUCAACGUAGAAGGGCCAUGCC [EX3 #68] (Eterna round: R97, puzzle: Exclusion 3)”: the “apparent KD of MS2 coat protein” value by setting is: (input ligand: FMN 200 uM) 76.3 nM; (input ligand: none) 117 nM.
